Test results from patent US20130251724A1 (GlaxoSmithKline, published 2013).
Numbering of substitutions follows the chain as printed. Where “and” joins values, the source holds several entries; their conditions need not be identical. Equal values may be shown once. Read-outs that look alike come from different tables or passages of the source.

T1: Human OSM (human, UniProt P13725 26-221)
T1 construct: Recombinant human OSM; also called hOSM; human Oncostatin M
T1 sequence: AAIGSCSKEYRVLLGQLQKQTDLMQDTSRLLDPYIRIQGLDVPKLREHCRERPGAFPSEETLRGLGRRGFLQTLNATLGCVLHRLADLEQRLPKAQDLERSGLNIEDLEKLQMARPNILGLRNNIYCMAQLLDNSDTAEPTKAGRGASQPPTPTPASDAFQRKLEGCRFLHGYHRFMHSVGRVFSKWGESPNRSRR

T2: Cynomolgus OSM (cynomolgus, UniProt A0A2K5VPC6 26-221)
T2 construct: also called Cyno OSM; cynomolgus macaque OSM
T2 sequence: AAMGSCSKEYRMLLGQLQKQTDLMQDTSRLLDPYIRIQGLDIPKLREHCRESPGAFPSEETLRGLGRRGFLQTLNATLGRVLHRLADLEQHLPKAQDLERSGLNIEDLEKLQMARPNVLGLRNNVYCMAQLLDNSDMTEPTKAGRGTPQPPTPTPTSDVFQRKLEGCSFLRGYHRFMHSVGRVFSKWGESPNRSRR

T3: Endogenous human OSM (neutrophil-derived) (human, UniProt P13725 26-221, limits assumed)
T3 construct: Native OSM generated from GM-CSF stimulation of healthy human neutrophils; also called native OSM; endogenous OSM
T3 sequence: T1 sequence

B1: 9G2, murine anti-OSM mAb (antibody, V domains shown)
VH: EVQLVESGGGLVEPGGSLKLSCAASGFTFSNYAMSWVRQTPEKRLEWVATISDGGSFTYYLDNVKGRFTISRDNAKNNLYLQMSHLKSDDTAMYYCARDVGHTTFWYFDVWGTGTTVTVSS
VL: DIVLTQSPVFLVISLGQRATISCRASKSVSASGYNFMHWYQQKPGQPPKVLIKYASNLESGVPARFSGSGSGTDFTLNIHPVEEEDAVTYYCQHSREFPFTFGGGTKLEIK
notes: Mouse hybridoma mAb; also called 9G2/C1; 9G2.C1
B2: 3E3, murine anti-OSM mAb (antibody, V domains shown)
VH: EVQLVESGGDLVKPGGSLKLSCVPSGFTFSSYAMSWVRQTPEKRLEWVATISDGGSFTYYFANIQGRFTISRDNTKNNLYLQMNHLKSEDAGMYYCARDVGLTTFWYFDVWGTGTTVTVSS
VL: B1 VL with V9A, F10S, V12T, A31P, N35D, V50L, N57E, A64G, V88A, Y91F
notes: Mouse hybridoma mAb; also called 3E3/A1; 3E3.A1

Legend:
[1] = biological target: T1, Human OSM; experiment: BIAcore kinetics
[2] = biological target: T2, Cynomolgus OSM; experiment: BIAcore kinetics
[3] = biological target: T1, Human OSM; experiment: BIAcore kinetics; remark: listed apart in the source
[4] = biological target: T2, Cynomolgus OSM; experiment: BIAcore kinetics; remark: listed apart in the source
[5] = biological target: T1, Human OSM; experiment: cell-based or functional assay
[6] = biological target: T2, Cynomolgus OSM; experiment: cell-based or functional assay
[7] = biological target: T1, Human OSM; experiment: cell-based or functional assay; remark: listed apart in the source
[8] = biological target: T2, Cynomolgus OSM; experiment: cell-based or functional assay; remark: listed apart in the source
[9] = biological target: T1, Human OSM; experiment: cell-based or functional assay; remark: listed apart in the source
[10] = biological target: T1, Human OSM; experiment: human gp130 ELISA, inhibition of OSM binding to gp130
[11] = biological target: T2, Cynomolgus OSM; experiment: as above
[12] = biological target: T1, Human OSM; experiment: as above; remark: listed apart in the source
[13] = biological target: T2, Cynomolgus OSM; experiment: as above; remark: listed apart in the source
[14] = biological target: T3, Endogenous human OSM …; experiment: gp130 ELISA with endogenous neutrophil-derived human OSM

Kd [1] [nM]	Kd [2] [nM]	Kd [3] [nM]	koff [3] [s⁻¹]	kon [3] [M⁻¹ s⁻¹]	Kd [4] [nM]	koff [4] [s⁻¹]	kon [4] [M⁻¹ s⁻¹]	KB cell neutralisation assay, mean IC50 [5]	KB cell neutralisation assay, mean IC50 [6]	KB cell neutralisation assay, mean IC50 [7]	KB cell neutralisation assay, mean IC50 [8]	IC50 (read off the curve); IL-6 release from KB cells stimulated with human OSM, 25% human AB serum [9] [µg/mL]	IC50 [10]	IC50 [11]	IC50 [12]	IC50 [13]	IC50 [14]	Binder
1.6	0.75	1.6	0.000121	75200	0.775	4.76e-05	61400	0.018 µg/ml and 120 pM	100 pM and 0.015 µg/ml	0.163 µg/ml and 1.1 nM	0.046 µg/ml and 307 pM	~0.03	0.16 µg/mL and 1.1 nM	0.03 µg/mL and 0.2 nM	0.038 µg/mL and 0.253 nM	0.049 µg/mL and 0.327 nM	0.02 µg/mL and 0.133 nM	B1
1.3	3.28							0.054 µg/ml and 360 pM	0.15 µg/ml and 1 nM				0.19 µg/mL and 1.3 nM	0.06 µg/mL and 0.4 nM				B2
